Laboratory results published in patent US20160257755A1 (TRACON PHARMACEUTICALS, published 2016).

T1: mouse endoglin, R&D Systems Cat. No. 1320-EN-025 (mouse, UniProt Q63961 27-581)
T1 construct: Coated directly on the plate at 1 ug/ml; also called murine endoglin
T1 sequence (looked up): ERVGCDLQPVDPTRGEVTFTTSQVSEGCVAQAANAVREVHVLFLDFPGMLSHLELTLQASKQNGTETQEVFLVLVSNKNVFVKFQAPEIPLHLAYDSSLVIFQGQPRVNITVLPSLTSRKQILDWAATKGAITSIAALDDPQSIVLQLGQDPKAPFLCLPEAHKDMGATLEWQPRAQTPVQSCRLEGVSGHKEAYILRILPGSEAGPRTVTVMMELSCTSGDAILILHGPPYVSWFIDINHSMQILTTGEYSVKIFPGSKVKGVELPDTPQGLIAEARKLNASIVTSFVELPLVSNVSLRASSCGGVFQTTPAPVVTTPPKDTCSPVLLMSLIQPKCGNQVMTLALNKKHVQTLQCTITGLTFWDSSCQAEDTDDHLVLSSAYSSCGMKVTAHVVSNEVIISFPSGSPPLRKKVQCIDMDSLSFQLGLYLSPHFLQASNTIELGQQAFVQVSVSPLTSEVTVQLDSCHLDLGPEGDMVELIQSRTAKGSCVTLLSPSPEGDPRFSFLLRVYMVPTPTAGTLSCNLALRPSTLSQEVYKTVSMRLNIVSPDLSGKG

T2: human CD105 (endoglin), R&D Systems Cat. No. 1097-EN (human, UniProt P17813 26-586)
T2 construct: Bought protein, captured on the plate by mouse anti-human CD105 (Southern Biotechnologies 9811-01); also called human endoglin
T2 sequence (looked up): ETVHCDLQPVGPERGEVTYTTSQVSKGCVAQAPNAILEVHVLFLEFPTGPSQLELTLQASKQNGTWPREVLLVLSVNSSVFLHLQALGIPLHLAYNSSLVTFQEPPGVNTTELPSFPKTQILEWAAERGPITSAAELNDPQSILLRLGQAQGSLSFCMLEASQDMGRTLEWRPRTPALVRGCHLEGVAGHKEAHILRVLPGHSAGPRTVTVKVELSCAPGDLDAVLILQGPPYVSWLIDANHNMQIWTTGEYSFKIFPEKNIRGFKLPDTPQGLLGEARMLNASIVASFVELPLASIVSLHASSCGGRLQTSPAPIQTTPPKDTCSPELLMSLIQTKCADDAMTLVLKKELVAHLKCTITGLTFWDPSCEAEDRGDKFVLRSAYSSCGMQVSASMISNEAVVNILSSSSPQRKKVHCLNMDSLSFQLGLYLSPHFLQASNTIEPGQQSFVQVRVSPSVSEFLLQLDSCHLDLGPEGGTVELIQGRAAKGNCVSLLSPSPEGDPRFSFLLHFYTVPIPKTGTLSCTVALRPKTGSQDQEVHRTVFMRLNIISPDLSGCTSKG

T3: recombinant endoglin (BIAcore analyte, Example 2) (UniProt P17813 26-586, limits assumed)
T3 sequence (looked up): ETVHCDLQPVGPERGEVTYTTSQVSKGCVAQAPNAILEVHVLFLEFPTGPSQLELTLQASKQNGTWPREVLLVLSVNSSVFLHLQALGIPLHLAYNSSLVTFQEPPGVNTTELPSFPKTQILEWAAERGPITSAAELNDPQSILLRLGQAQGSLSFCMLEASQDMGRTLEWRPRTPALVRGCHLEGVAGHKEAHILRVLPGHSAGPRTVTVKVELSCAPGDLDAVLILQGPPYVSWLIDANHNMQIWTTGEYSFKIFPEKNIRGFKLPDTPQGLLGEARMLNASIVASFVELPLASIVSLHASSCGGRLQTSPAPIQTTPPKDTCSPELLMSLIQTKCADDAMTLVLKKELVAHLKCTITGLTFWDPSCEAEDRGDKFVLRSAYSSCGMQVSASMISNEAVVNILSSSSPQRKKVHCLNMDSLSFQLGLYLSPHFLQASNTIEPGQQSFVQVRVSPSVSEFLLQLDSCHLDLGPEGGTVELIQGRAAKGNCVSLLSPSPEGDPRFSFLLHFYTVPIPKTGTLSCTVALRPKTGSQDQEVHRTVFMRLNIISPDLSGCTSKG


Key:
[1] = biological target: T1, mouse endoglin, R&D Systems Cat. No. …; test: competition ELISA on coated mouse endoglin, competitor biotinylated M1043 (40 ng/ml)
Procedure: Nunc Immuno MaxiSorp 96 well flat bottom plates (Fisher Cat. No. DIS-971-030J) were coated with mouse endoglin (R&D Systems, Cat. No. 1320-EN-025) at 1μg/ml in PBS overnight at 4° C. The following day the plate was washed three times with PBST before blocking with PBST/3% Marvel at room temperature for 1 hour. […] Binding of the biotinylated antibody was detected via streptavidin-HRP (Sigma, Cat. No. 55512) and TMB substrate (Sigma, Cat. No. T0440). OD450 nm values were measured on a Dynex MRX TCII plate reader.

[2] = biological target: T2, human CD105 (endoglin), R&D Systems …; test: competition ELISA on captured human CD105, human BMP9 against biotinylated TRC205 (55 ng/ml); human BMP9 as competitor, in nM
Procedure: (§1) OD450 nm values were measured on a Dynex MRX TCII plate reader.

[3] = biological target: T2, human CD105 (endoglin), R&D Systems …; test: direct ELISA, biotinylated TRC205 on human CD105 captured by anti-CD105, streptavidin-HRP detection
Procedure: as §1

[4] = biological target: T2, human CD105 (endoglin), R&D Systems …; test: competition ELISA on captured human CD105, unlabelled TRC205 against biotinylated TRC205 (55 ng/ml); unlabelled TRC205 as competitor, in nM
Procedure: as §1

[5] = biological target: T3, recombinant endoglin (BIAcore analyte, …); test: SPR (BIAcore), antibody captured on protein A, recombinant endoglin as analyte
Procedure: Affinity of antibodies can be assessed using, for example, BIAcore analysis using standard protocols. Briefly, protein A is chemically coupled to a BIAcore CM5 chip, with the amount of protein A immobilized corresponding to 2000 RU. Subsequent steps are performed in a running buffer of 10 mM HEPES, 150 mM NaCl, 3 mM EDTA, 0.05% TWEEN, pH=7.4, at 25 degrees Celsius using a 10 Hz data collection rate. […] Start-up cycles are performed using running buffer at a flow rate of 40 μL/min, a contact time of 90 seconds and a dissociation time of 90 seconds. Sample cycles are performed using recombinant endoglin at concentrations ranging from 0 to 40 nM. Endoglin is passed over the BIAcore chip containing captured antibody at a flow rate of 40 μL/min with a contact time of 525 seconds and dissociation time of 2500 seconds. […] Regeneration of the chip is accomplished using 10 mM glycine pH=1.7. Data analysis is performed using BIAcore T100 Evaluation Software v1.1 Signals generated using BIAcore chips with different captured antibody densities are compared and data generated in the absence of recombinant endoglin are used to adjust for the intraassay blank signal. For fitting of the data, the Rₘₐₓ is allowed to float to account for variation in capture levels of each antibody in each cycle. Data from each capture density is fitted simultaneously during analysis of each antibody.

[6] = biological target: T2, human CD105 (endoglin), R&D Systems …; test: competition ELISA on captured human CD105 against biotinylated chimeric anti-CD105 (6.25 ng/ml); streptavidin-HRP/TMB, absorbance at 450 nm
Procedure: FIGS. 6A-6F. Anti-CD105 competition ELISA with humanized and humanized/deimmunized antibodies. […] Binding was detected via streptavidin-HRP and TMB substrate. Absorbance (OD) at 450 nm was measured on a plate reader and this was plotted against the test antibody concentration.
as §1

[7] = biological target: T1, mouse endoglin, R&D Systems Cat. No. …; test: direct ELISA on coated mouse endoglin, anti-rat IgG peroxidase detection
Procedure: The following day the plate was washed three times with PBST before blocking with PBST/3% Marvel at room temperature for 1 hour. […] Binding of the antibodies was detected via anti-rat IgG peroxidase (Sigma, Cat. No. A9037) and TMB single solution substrate (Invitrogen, Cat. No. 00-2023). The reaction was stopped by adding 3 M HCl and OD450 nm values were measured on a Dynex MRX TCII plate reader.

Row | Binder | Kd [5] | koff [5] | kon [5] | further results
1 | mouse BMP9 (R&D Systems, Cat. No. 5566-BP-010) (ligand, UniProt Q9WV56 319-428, looked up) STGASSHCQKTSLRVNFEDIGWDSWIIAPKEYDAYECKGGCFFPLADDVTPTKHAIVQTLVHLKFPTKVGKACCVPTKLSPISILYKDDMGVPTLKYHYEGMSVAECGCR |  |  |  | binding result [1]: binds
2 | human BMP9 (R&D Systems Cat. No. 3209-BP-010) (ligand, UniProt Q9UK05 320-429, looked up) SAGAGSHCQKTSLRVNFEDIGWDSWIIAPKEYEAYECKGGCFFPLADDVTPTKHAIVQTLVHLKFPTKVGKACCVPTKLSPISVLYKDDMGVPTLKYHYEGMSVAECGCR |  |  |  | IC50 [2]: 14.6 nM
3 | TRC205 antibody (antibody, IgG4, V domains shown, Humanized and deimmunized IgG4; also called biotinylated TRC205; unlabelled TRC205) VH: EVQLVESGGGLVKPGGSLRLSCAASGFTFSDAWMDWVRQAPGKGLEWVGEARSKASNHATYYAESVKGRFTISRDDSKNTLYLQMNSLKTEDTAVYYCTRWRRFFDSWGQGTLVTVSS VL: DIQMTQSPSSLSASVGDRATITCRASSSVSYMHWYQQKPGKAPKPWAYATSNLASGVPSRFSGSGSGTDYTLTISSLQPEDFATYYCQQWSSNPLTFGGGTKVEIK |  |  |  | EC50 [3]: 0.046 µg/mL; IC50 [4]: 1.7 nM
4 | humanized/deimmunized anti-endoglin antibody VK1AAVH1R (antibody, human IgG1, V domains shown) VH: EVQLVESGGGLVKPGGSLRLSCAASGFTFSDAWMDWVRQAPGKGLEWVGEIRSRASNHATYYAESVKGRFTISRDDSKNTLYLQMNSLKTEDTAVYYCTRWRRFFDSWGQGTLVTVSS VL: DIQMTQSPSSLSASVGDRATITCRASSSVSYMHWYQQKPGKAPKPWAYATSNLASGVPSRFSGSGSGTDYTLTISSLQPEDFATYYCQQWSSNPLTFGGGTKVEIK | 0.533 nM | 3.41e-05 s⁻¹ | 64000 M⁻¹ s⁻¹ | 
5 | VK2SAVH1S (antibody, V domains shown, humanized/deimmunized anti-endoglin antibody variant) VH: EVQLVESGGGLVKPGGSLRLSCAASGFTFSDAWMDWVRQAPGKGLEWVSEIRSKASNHATYYAESVKGRFTISRDDSKNTLYLQMNSLKTEDTAVYYCTRWRRFFDSWGQGTLVTVSS VL: DIQLTQSPSSLSASVGDRVTISCRASSSVSYMHWYQQKPGKAPKPWAYATSNLASGVPSRFSGSGSGTDYTLTISSLQPEDFATYYCQQWSSNPLTFGGGTKVEIK |  |  |  | binding result [6]: binds
6 | VK2SSVH1S (antibody, V domains shown, humanized/deimmunized anti-endoglin antibody variant) VH: EVQLVESGGGLVKPGGSLRLSCAASGFTFSDAWMDWVRQAPGKGLEWVSEIRSKASNHATYYAESVKGRFTISRDDSKNTLYLQMNSLKTEDTAVYYCTRWRRFFDSWGQGTLVTVSS VL: DIQLTQSPSSLSASVGDRVTISCRASSSVSYMHWYQQKPGKAPKPWIYASSNLASGVPSRFSGSGSGTDYTLTISSLQPEDFATYYCQQWSSNPLTFGGGTKVEIK |  |  |  | binding result [6]: binds
7 | VK2SSVH1Q (antibody, V domains shown, humanized/deimmunized anti-endoglin antibody variant) VH: EVQLVESGGGLVKPGGSLRLSCAASGFTFSDAWMDWVRQAPGKGLEWVGEIRSQASNHATYYAESVKGRFTISRDDSKNTLYLQMNSLKTEDTAVYYCTRWRRFFDSWGQGTLVTVSS VL: DIQLTQSPSSLSASVGDRVTISCRASSSVSYMHWYQQKPGKAPKPWIYASSNLASGVPSRFSGSGSGTDYTLTISSLQPEDFATYYCQQWSSNPLTFGGGTKVEIK |  |  |  | binding result [6]: binds
8 | M1043 antibody (antibody, rat IgG1, V domains shown, also called Antibody M1043; biotinylated M1043) VH: QVQLQQSGAELVKPGSSVKISCKASGYTFTSYDMHWIKQQPGNGLEWIGWIYPGNGNTKYNQKFNGKATLTADKSSSTAYMQLSSLTSEDSAVYFCARGKFGVGDYWGQGVMVTVSS VL: DTVLTQSPALAVSPGERVSISCRASEGVNSYMHWYQQKPGQQPKLLIYIASNLASGVPARFSGSGSGTDFTLTIDPVEADDTATYFCQQSWNDPYTFGAGTKLELKR |  |  |  | binding result [7]: binds

More lines, main results first:

Row | Kd [5] | koff [5] | kon [5] | Binder | further results
9 | 0.706 nM | 3.25e-05 s⁻¹ | 46000 M⁻¹ s⁻¹ | humanized/deimmunized anti-endoglin antibody VK1AAVH1A2 (antibody, V domains shown, It has the same variable domains as TRC205, which is IgG4) VH: EVQLVESGGGLVKPGGSLRLSCAASGFTFSDAWMDWVRQAPGKGLEWVGEARSKASNHATYYAESVKGRFTISRDDSKNTLYLQMNSLKTEDTAVYYCTRWRRFFDSWGQGTLVTVSS VL: DIQMTQSPSSLSASVGDRATITCRASSSVSYMHWYQQKPGKAPKPWAYATSNLASGVPSRFSGSGSGTDYTLTISSLQPEDFATYYCQQWSSNPLTFGGGTKVEIK | 
10 | 0.85 nM | 3.03e-05 s⁻¹ | 35600 M⁻¹ s⁻¹ | humanized/deimmunized anti-endoglin antibody VK1AAVH1Q (antibody, human IgG1, V domains shown) VH: EVQLVESGGGLVKPGGSLRLSCAASGFTFSDAWMDWVRQAPGKGLEWVGEIRSQASNHATYYAESVKGRFTISRDDSKNTLYLQMNSLKTEDTAVYYCTRWRRFFDSWGQGTLVTVSS VL: DIQMTQSPSSLSASVGDRATITCRASSSVSYMHWYQQKPGKAPKPWAYATSNLASGVPSRFSGSGSGTDYTLTISSLQPEDFATYYCQQWSSNPLTFGGGTKVEIK | 
11 | 0.6 nM | 3.28e-05 s⁻¹ | 54700 M⁻¹ s⁻¹ | chimeric anti-endoglin antibody (TRC105) (antibody, V domains shown, also called chimeric anti-CD105; c-SN6j) VH: EVKLEESGGGLVQPGGSMKLSCAASGFTFSDAWMDWVRQSPEKGLEWVAEIRSKASNHATYYAESVKGRFTISRDDSKSSVYLQMNSLRAEDTGIYYCTRWRRFFDSWGQGTTLTVSS VL: QIVLSQSPAILSASPGEKVTMTCRASSSVSYMHWYQQKPGSSPKPWIYATSNLASGVPVRFSGSGSGTSYSLTISRVEAEDAATYYCQQWSSNPLTFGAGTKLELK | 
